Source: publication PMC9275567

Tests used:
[1] = molecular target: FUsed in Sarcoma (FUS) in HeLa-Kyoto cells (human (endogenous in HeLa-Kyoto)) (UniProt P35637); assay: cross-linking + co-IP
[2] = molecular target: RNA polymerase II (RNA Pol II) (human (endogenous in HeLa-Kyoto)) (UniProt P24928); assay: cross-linking + co-IP

percent of RNA Pol II cross-linked to FUS (large particles, >70 nm) [1] [%] | percent of RNA Pol II cross-linked to FUS (whole cell lysate) [1] [%] | percent of cellular FUS cross-linked to RNA Pol II [2] [%] | Substance
69 | 87 | – | RNA polymerase II (RNA Pol II) (from UniProt P24928 1-1970) (complex)
– | – | 21 | FUsed in Sarcoma (FUS) in HeLa-Kyoto cells (from UniProt P35637 1-526) (natural protein)
